{"source": "patent US5874272A", "about": "“Inosine-guanosine kinase” (Kyowa Hakko Kogyo Co., Ltd., priority 1998, dated 1999)", "key": {"[1]": {"assay": "Optimum pH and optimum temperature of the enzyme activity", "type": "biochemical, Escherichia coli", "details": "30° C., 20 minutes; PIPES, HEPES, TAPS, CHES buffers 100 mM", "protocol": "The activity of the inosine-guanosine kinase obtained is determined as follows. A reaction solution (hereafter referred to as reaction solution a) having a composition of 100 mM HEPES buffer (pH 7.2), 10 mM MgSO4, 50 mM KCl, 1 mM ATP and 1 mM inosine is brought into contact with the inosine-guanosine […] During the course of reaction, a part of the reaction solution is subjected to sampling intermittently. After the reaction solution is diluted to 1/20 with 0.2M NaH2 PO4 (adjusted the pH to 2.6 with H3 PO4) to stop the reaction, an amount of 5'-IMP in the stopped reaction solution is quantitatively determined by HPLC. Analysis by HPLC is made by using 0.2M NaH2 PO4 (pH 2.6) at a flow rate of 1 ml/min. as an eluting solution and Asahipak GS-320H (manufactured by Asahi Chemical Co., Ltd.) as a column. Detection of components was made by the absorbance at UV absorbance at 254 nm as an index. Quantitative determination was made by comparing absorbancy with that of the standard. […]\nIn the method for determination of inosine-guanosine kinase activity described above, the activity is determined by varying the temperature of 0° to 50° C. and 31° to 41° C. […]"}, "[2]": {"substrate": "Nc1nc2c(ncn2[C@@H]2O[C@H](CO)[C@@H](O)[C@H]2O)c(=O)[nH]1", "assay": "Km value determination", "type": "biochemical, Escherichia coli", "details": "other: 2 mM ATP, 10 mM MgSO4, 300 mM KCl, 0.1M HEPES buffer (pH 7.2)"}, "[3]": {"substrate": "OC[C@H]1O[C@@H](n2cnc3c(O)ncnc32)[C@H](O)[C@@H]1O", "assay": "Km value determination", "type": "biochemical, Escherichia coli", "details": "other: 2 mM ATP, 10 mM MgSO4, 300 mM KCl, 0.1M HEPES buffer (pH 7.2)"}, "[4]": {"assay": "pH, temperature and storage stability of the enzyme (residual activity)", "type": "physicochemical, Escherichia coli", "protocol": "This enzyme is treated at 4° C. for 16 hours in an aqueous solution containing 50 mM buffer (CHES; pH 10.0-9.0, TAPS; pH 8.2, HEPES; pH 8.3-7.3 or PIPES; pH 6.6) and 5 mM […] under both conditions in the absence of KCl and in the presence of 250 mM KCl. After the treatment, the activity is determined. Where treated in a pH range of 6.6 to 9.0, the treated enzyme maintains the residual activity of 90% or more than the activity of intact standard enzyme and stably keeps its activity in a pH range of 6.6 to 9.0. The addition of KCl accelerates storage stability.\nA reaction solution composed of 20% glycerol, 50 mM Tris-hydrochloride buffer (pH 8), 5 mM β-mercaptoethanol and 100 mM NaCl is contacted with inosine-guanosine kinase in a concentration of about 10 μg protein/ml and treated at a temperature of 26° to 50° C. for 15 minutes to determine the residual activity at each temperature. As the result, since treatment at 40° C. or lower inactivates the enzyme by only 20% or less, the enzyme is stable up to 40° C. In contrast, the activity is rapidly lost by treatment at 50° C.\nAfter 6 g of the -20° C.-stored cells which had been obtained in (6) was suspended in 24 ml of purification buffer [20% glycerol, 50 mM Tris-hydrochloride buffer (pH 8) and 5 mM β-mercaptoethanol], the suspension was disrupted with a homogenizer (manufactured by Brown Biotech Co., Ltd., glass bead diameter of 0.1 mm). The homogenate was centrifuged to give about 20 ml of the supernatant. Protamine sulfate was added to the supernatant in a final concentration of 0.4% followed by centrifugation. Thus high molecular nucleic acid components were removed as precipitates. The resulting supernatant was passed through Sephadex G-50 column which had been previously equilibrated with the purification buffer. The column was eluted with the purification buffer to give about 30 ml of desalted active fraction. After the fraction was passed through DEAE Sepharose column which had been previously equilibrated with the purification buffer, 60 ml of the purification buffer containing 0.1M NaCl was added thereto. Then the desired enzyme was eluted with 200 ml of the purification buffer having an NaCl linear density slope of 0.1M to 0.6M. From the active fractions eluted, 3 ml of the fraction having the highest enzyme concentration was collected. This active fraction was passed through Sephacryl S-200 column and eluted with the purification buffer containing 0.1M NaCl. By gel filtration, the active fraction was collected. Finally 10 ml of purified enzyme (1.4 μg protein/ml) was obtained. This purified enzyme was analyzed by SDS-polyacrylamide electrophoresis but no impurity was detected. The enzyme is stably stored at -20° C. in the purification buffer containing 0.1M NaCl."}}}
{"molecule": "inosine-guanosine kinase (Escherichia coli K-12) (protein, made in house; host or cells: Escherichia coli) MKFPGKRKSKHYFPVNARDPLLQQFQPENETSAAWVVGIDQTLVDIEAKVDDEFIERYGLSAGHSLVIEDDVAEALYQELKQKNLITHQFAGGTIGNTMHNYSVLADDRSVLLGVMCSNIEIGSYAYRYLCNTSSRTDLNYLQGVDGPIGRCFTLIGESGERTFAISPGHMNQLRAESIPEDVIAGASALVLTSYLVRCKPGEPMPEATMKAIEYAKKYNVPVVLTLGTKFVIAENPQWWQQFLKDHVSILAMNEDEAEALTGESDPLLASDKALDWVDLVLCTAGPIGLYMAGFTEDEAKRKTQHPLLPGAIAEFNQYEFSRAMRHKDCQNPLRVYSHIAPYMGGPEKIMNTNGAGDGALAALLHDITANSYHRSNVPNSSKHKFTWLTYSSLAQVCKYANRVSYQVLNQHSPRLTRGLPEREDSLEESYWDR", "values": [{"measurement": "optimum pH", "setting": "[1]", "value": "6.9-8.2"}, {"measurement": "Km", "setting": "[2]", "value": 6.1, "unit": "µM"}, {"measurement": "Km", "setting": "[3]", "value": 2.1, "unit": "mM"}, {"measurement": "residual activity after pH treatment", "setting": "[4]; 4° C., 16 hours, pH range of 6.6 to 9.0, with or without 250 mM KCl, versus intact standard enzyme", "value": "≥ 90", "unit": "%"}, {"measurement": "temperature up to which the enzyme is stable", "setting": "[4]; 15 minutes treatment, pH 8", "value": "up to 40 °C"}, {"measurement": "storage stability (in words)", "setting": "[4]; -20° C. in purification buffer containing 0.1M NaCl", "value": "stably stored"}, {"measurement": "inactivation by heat treatment", "setting": "[4]; treatment at 40° C. or lower, 15 minutes, pH 8", "value": "≤ 20", "unit": "%"}, {"measurement": "activity after heat treatment (in words)", "setting": "[4]; treatment at 50° C., 15 minutes", "value": "rapidly lost"}]}
